# Reference: article PMC1868598
# B1: human ClC-6 (hClC-6a): AAA-hClC-6 (protein)
# parent chain: MAGCRGSLCCCCRWCCCCGERETRTPEELTILGETQEEEDEILPRKDYESLDYDRCINDPYLEVLETMDNKKGRRYEAVKWMVVFAIGVCTGLVGLFVDFFVRLFTQLKFGVVQTSVEECSQKGCLALSLLELLGFNLTFVFLASLLVLIEPVAAGSGIPEVKCYLNGVKVPGIVRLRTLLCKVLGVLFSVAGGLFVEKEGPMIHSGSVVGAGLPQFQSISLRKIQFNFPYFRSDRDKRDFVSAGAAAGVAAAFGAPIGGTLFSLEEGSSFWNQGLTWKVLFCSMSATFTLNFFRSGIQFGSWGSFQLPGLLNFGEFKCSDSDKKCHLWTAMDLGFFVVMGVIGGLLGATFNCLNKRLAKYRMRNVHPKPKLVRVLESLLVSLVTTVVVFVASMVLGECRQMSSSSQIGNDSFQLQVTEDVNSSIKTFFCPNDTYNDMATLFFNPQESAILQLFHQDGTFSPVTLALFFVLYFLLACWTYGISVPSGLFVPSLLCGAAFGRLVANVLKSYIGLGHIYSGTFALIGAAAFLGGVVRMTISLTVILIESTNEITYGLPIMVTLMVAKWTGDFFNKGIYDIHVGLRGVPLLEWETEVEMDKLRASDIMEPNLTYVYPHTRIQSLVSILRTTVHHAFPVVTENRGNEKEFMKGNQLISNNIKFKKSSILTRAGEQRKRSQSMKSYPSSELRNMCDEHIASEEPAEKEDLLQQMLERRYTPYPNLYPDQSPSEDWTMEERFRPLTFHGLILRSQLVTLLVRGVCYSESQSSASQPRLSYAEMAEDYPRYPDIHDLDLTLLNPRMIVDVTPYMNPSPFTVSPNTHVSQVFNLFRTMGLRHLPVVNAVGEIVGIITRHNLTYEFLQARLRQHYQTI
# Tests used:
# [1] = confocal colocalisation with GFP-Rab4, transfected HeLa/COS-1; conditions: glycan lost; control: wild type
# [2] = Triton X-100 lysis, sucrose gradient flotation, COS-1; conditions: glycan lost; control: wild type
protein,measurement,setting,value
B1,localisation_or_trafficking,[1],no change
same,other: detergent-resistant membrane association,[2],no change
